Patent US20220402983A1 (Janssen / Centocor, published 2022)
*1 amine or outer side, *2 acyl side, *3 side chain or, on linkers, in order; H or OH if unused. Bridges are numbered along the chain shown (N, C = ends). [ ]: non-standard residue; d: D form. (N-(3-aminophenyl))Asn = N-(3-aminophenyl)-asparagine, O=C(C[C@H](N[*:1])C(=O)[*:2])Nc1cccc(N[*:3])c1; dPhe(3-NH2) = D-3-aminophenylalanine, O=C([C@@H](Cc1cccc(N[*:3])c1)N[*:1])[*:2]; Trp(7-Me) = Cc1cccc2c(C[C@H](N)C(=O)O)c[nH]c12; (N-Pyr)Asn = N-pyrrolidin-3-yl-asparagine; dPhe(4-NH2) = Nc1ccc(C[C@@H](N)C(=O)O)cc1; (N-Pip)Asn = N-piperidin-4-yl-asparagine; Phe(4-NH2) = Nc1ccc(C[C@H](N)C(=O)O)cc1; 2Nal = N[C@@H](Cc1ccc2ccccc2c1)C(=O)O; (N-benzyl)Asn = N-benzyl-asparagine; AEF = NCCOc1ccc(C[C@H](N)C(=O)O)cc1; αMeF = C[C@](N)(Cc1ccccc1)C(=O)O; 3Pal = N[C@@H](Cc1cccnc1)C(=O)O; Cit = NC(=O)NCCC[C@H](N)C(=O)O; αMeL = CC(C)C[C@](C)(N)C(=O)O; Pen = CC(C)(S)[C@H](N)C(=O)O; αMeK = C[C@](N)(CCCCN)C(=O)O; αMeC = C[C@](N)(CS)C(=O)O; Thp = NC1(C(=O)O)CCOCC1; Abu = CC[C@H](N)C(=O)O

T1: human IL-23R (interleukin-23 receptor) (human, UniProt Q5VWK5 24-629)
T1 sequence (looked up): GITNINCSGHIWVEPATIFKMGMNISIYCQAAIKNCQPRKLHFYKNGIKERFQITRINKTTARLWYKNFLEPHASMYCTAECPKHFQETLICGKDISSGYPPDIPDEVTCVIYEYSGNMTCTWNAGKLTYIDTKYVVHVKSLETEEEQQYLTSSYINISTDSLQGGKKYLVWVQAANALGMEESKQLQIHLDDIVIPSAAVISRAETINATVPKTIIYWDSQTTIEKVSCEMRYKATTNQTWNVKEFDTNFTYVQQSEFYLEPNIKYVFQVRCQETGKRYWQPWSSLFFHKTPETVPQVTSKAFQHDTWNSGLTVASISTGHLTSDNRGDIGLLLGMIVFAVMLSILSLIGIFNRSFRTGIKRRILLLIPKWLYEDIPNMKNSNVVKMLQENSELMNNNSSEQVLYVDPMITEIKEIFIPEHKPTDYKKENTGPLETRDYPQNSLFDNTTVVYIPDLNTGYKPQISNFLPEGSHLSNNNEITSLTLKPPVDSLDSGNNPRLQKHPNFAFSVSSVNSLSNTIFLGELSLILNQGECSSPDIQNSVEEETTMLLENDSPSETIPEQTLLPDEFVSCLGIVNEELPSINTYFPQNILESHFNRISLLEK

B1: Compound No. 124 (peptide)
peptide: Ac-[dR][Pen]NT[Trp(7-Me)]K(Ac)[Pen][AEF][2Nal][Thp]EN[αMeF]-NH2
modifications: disulfide 2-7
SMILES: CC(=O)NCCCC[C@@H]1NC(=O)[C@H](Cc2c[nH]c3c(C)cccc23)NC(=O)[C@H]([C@@H](C)O)NC(=O)[C@H](CC(N)=O)NC(=O)[C@@H](NC(=O)[C@@H](CCCNC(=N)N)NC(C)=O)C(C)(C)SSC(C)(C)[C@@H](C(=O)N[C@@H](Cc2ccc(OCCN)cc2)C(=O)N[C@@H](Cc2ccc3ccccc3c2)C(=O)NC2(C(=O)N[C@@H](CCC(=O)O)C(=O)N[C@@H](CC(N)=O)C(=O)N[C@@](C)(Cc3ccccc3)C(N)=O)CCOCC2)NC1=O
B2: Compound No. 108 (peptide)
peptide: Ac-[Pen]NT[Trp(7-Me)][Cit][Pen][AEF][2Nal][αMeL]K(Ac)N[Thp]-NH2
modifications: disulfide 1-6
SMILES: CC(=O)NCCCC[C@H](NC(=O)[C@](C)(CC(C)C)NC(=O)[C@H](Cc1ccc2ccccc2c1)NC(=O)[C@H](Cc1ccc(OCCN)cc1)NC(=O)[C@H]1NC(=O)[C@H](CCCNC(N)=O)NC(=O)[C@H](Cc2c[nH]c3c(C)cccc23)NC(=O)[C@H]([C@@H](C)O)NC(=O)[C@H](CC(N)=O)NC(=O)[C@@H](NC(C)=O)C(C)(C)SSC1(C)C)C(=O)N[C@@H](CC(N)=O)C(=O)NC1(C(N)=O)CCOCC1
B3: Compound No. 116 (peptide)
peptide: Ac-[Pen]NT[Trp(7-Me)]K(Ac)[Pen][AEF][2Nal][αMeK]K(Ac)N[αMeF][3Pal]-NH2
modifications: disulfide 1-6
SMILES: CC(=O)NCCCC[C@@H]1NC(=O)[C@H](Cc2c[nH]c3c(C)cccc23)NC(=O)[C@H]([C@@H](C)O)NC(=O)[C@H](CC(N)=O)NC(=O)[C@@H](NC(C)=O)C(C)(C)SSC(C)(C)[C@@H](C(=O)N[C@@H](Cc2ccc(OCCN)cc2)C(=O)N[C@@H](Cc2ccc3ccccc3c2)C(=O)N[C@@](C)(CCCCN)C(=O)N[C@@H](CCCCNC(C)=O)C(=O)N[C@@H](CC(N)=O)C(=O)N[C@@](C)(Cc2ccccc2)C(=O)N[C@@H](Cc2cccnc2)C(N)=O)NC1=O
B4: Compound No. 112 (peptide)
peptide: Ac-[Pen]NT[Trp(7-Me)]K(Ac)[Pen][AEF][2Nal][αMeK]K(Ac)N[Phe(4-NH2)]-NH2
modifications: disulfide 1-6
SMILES: CC(=O)NCCCC[C@@H]1NC(=O)[C@H](Cc2c[nH]c3c(C)cccc23)NC(=O)[C@H]([C@@H](C)O)NC(=O)[C@H](CC(N)=O)NC(=O)[C@@H](NC(C)=O)C(C)(C)SSC(C)(C)[C@@H](C(=O)N[C@@H](Cc2ccc(OCCN)cc2)C(=O)N[C@@H](Cc2ccc3ccccc3c2)C(=O)N[C@@](C)(CCCCN)C(=O)N[C@@H](CCCCNC(C)=O)C(=O)N[C@@H](CC(N)=O)C(=O)N[C@@H](Cc2ccc(N)cc2)C(N)=O)NC1=O
B5: Compound No. 118 (peptide)
peptide: Ac-CNT[Trp(7-Me)]K(Ac)[αMeC][AEF][2Nal][αMeK]K(Ac)N[αMeF]-NH2
modifications: disulfide 1-6
SMILES: CC(=O)NCCCC[C@@H]1NC(=O)[C@H](Cc2c[nH]c3c(C)cccc23)NC(=O)[C@H]([C@@H](C)O)NC(=O)[C@H](CC(N)=O)NC(=O)[C@@H](NC(C)=O)CSSC[C@@](C)(C(=O)N[C@@H](Cc2ccc(OCCN)cc2)C(=O)N[C@@H](Cc2ccc3ccccc3c2)C(=O)N[C@@](C)(CCCCN)C(=O)N[C@@H](CCCCNC(C)=O)C(=O)N[C@@H](CC(N)=O)C(=O)N[C@@](C)(Cc2ccccc2)C(N)=O)NC1=O
B6: Compound No. 119 (peptide)
peptide: CNTXQCFXKKNF
modifications: Ac-[Cys]-N-T-[W(7-Me)]-Q-[aMeCys]-Phe[4-(2-aminoethoxy)]-[2-Nal]-[a-MeLys]-[Lys(Ac)]-N-[a-MePhe]-NH2; cyclized: Cys-aMeCys disulfide bond
B7: Compound No. 122 (peptide)
peptide: Ac-CNTWK(Ac)[αMeC][AEF][2Nal][αMeK]K(Ac)N[αMeF]-NH2
modifications: disulfide 1-6
SMILES: CC(=O)NCCCC[C@@H]1NC(=O)[C@H](Cc2c[nH]c3ccccc23)NC(=O)[C@H]([C@@H](C)O)NC(=O)[C@H](CC(N)=O)NC(=O)[C@@H](NC(C)=O)CSSC[C@@](C)(C(=O)N[C@@H](Cc2ccc(OCCN)cc2)C(=O)N[C@@H](Cc2ccc3ccccc3c2)C(=O)N[C@@](C)(CCCCN)C(=O)N[C@@H](CCCCNC(C)=O)C(=O)N[C@@H](CC(N)=O)C(=O)N[C@@](C)(Cc2ccccc2)C(N)=O)NC1=O
B8: Compound No. 120 (peptide)
peptide: CNTXQCFXKKNX
modifications: Ac-[Cys]-N-T-[W(7-Me)]-Q-[aMeCys]-Phe[4-(2-aminoethoxy)]-[2-Nal]-[a-MeLys]-[Lys(Ac)]-N-[THP]-NH2; cyclized: Cys-aMeCys disulfide bond
B9: Compound No. 114 (peptide)
peptide: Ac-[Pen]NT[Trp(7-Me)]K(Ac)[Pen][AEF][2Nal][αMeK]K(Ac)N[αMeF][dPhe(4-NH2)]-NH2
modifications: disulfide 1-6
SMILES: CC(=O)NCCCC[C@@H]1NC(=O)[C@H](Cc2c[nH]c3c(C)cccc23)NC(=O)[C@H]([C@@H](C)O)NC(=O)[C@H](CC(N)=O)NC(=O)[C@@H](NC(C)=O)C(C)(C)SSC(C)(C)[C@@H](C(=O)N[C@@H](Cc2ccc(OCCN)cc2)C(=O)N[C@@H](Cc2ccc3ccccc3c2)C(=O)N[C@@](C)(CCCCN)C(=O)N[C@@H](CCCCNC(C)=O)C(=O)N[C@@H](CC(N)=O)C(=O)N[C@@](C)(Cc2ccccc2)C(=O)N[C@H](Cc2ccc(N)cc2)C(N)=O)NC1=O
B10: Compound No. 117 (peptide)
peptide: Ac-CNT[Trp(7-Me)]K(Ac)[αMeC][AEF][2Nal][αMeK]K(Ac)N[Thp]-NH2
modifications: disulfide 1-6
SMILES: CC(=O)NCCCC[C@@H]1NC(=O)[C@H](Cc2c[nH]c3c(C)cccc23)NC(=O)[C@H]([C@@H](C)O)NC(=O)[C@H](CC(N)=O)NC(=O)[C@@H](NC(C)=O)CSSC[C@@](C)(C(=O)N[C@@H](Cc2ccc(OCCN)cc2)C(=O)N[C@@H](Cc2ccc3ccccc3c2)C(=O)N[C@@](C)(CCCCN)C(=O)N[C@@H](CCCCNC(C)=O)C(=O)N[C@@H](CC(N)=O)C(=O)NC2(C(N)=O)CCOCC2)NC1=O
B11: Compound No. 130 (peptide)
peptide: Ac-[dR][Pen]QTWQ[Pen][AEF][2Nal][Thp]EN[(N-(3-aminophenyl))Asn]-NH2
modifications: disulfide 2-7
SMILES: CC(=O)N[C@H](CCCNC(=N)N)C(=O)N[C@@H]1C(=O)N[C@@H](CCC(N)=O)C(=O)N[C@@H]([C@@H](C)O)C(=O)N[C@@H](Cc2c[nH]c3ccccc23)C(=O)N[C@@H](CCC(N)=O)C(=O)N[C@H](C(=O)N[C@@H](Cc2ccc(OCCN)cc2)C(=O)N[C@@H](Cc2ccc3ccccc3c2)C(=O)NC2(C(=O)N[C@@H](CCC(=O)O)C(=O)N[C@@H](CC(N)=O)C(=O)N[C@@H](CC(=O)Nc3cccc(N)c3)C(N)=O)CCOCC2)C(C)(C)SSC1(C)C
B12: Compound No. 115 (peptide)
peptide: Ac-[Pen]NT[Trp(7-Me)]K(Ac)[Pen][AEF][2Nal][αMeK]K(Ac)N[αMeF][dPhe(3-NH2)]-NH2
modifications: disulfide 1-6
SMILES: CC(=O)NCCCC[C@@H]1NC(=O)[C@H](Cc2c[nH]c3c(C)cccc23)NC(=O)[C@H]([C@@H](C)O)NC(=O)[C@H](CC(N)=O)NC(=O)[C@@H](NC(C)=O)C(C)(C)SSC(C)(C)[C@@H](C(=O)N[C@@H](Cc2ccc(OCCN)cc2)C(=O)N[C@@H](Cc2ccc3ccccc3c2)C(=O)N[C@@](C)(CCCCN)C(=O)N[C@@H](CCCCNC(C)=O)C(=O)N[C@@H](CC(N)=O)C(=O)N[C@@](C)(Cc2ccccc2)C(=O)N[C@H](Cc2cccc(N)c2)C(N)=O)NC1=O
B13: Compound No. 121 (peptide)
peptide: Ac-CNTWK(Ac)[αMeC][AEF][2Nal][αMeK]K(Ac)N[Thp]-NH2
modifications: disulfide 1-6
SMILES: CC(=O)NCCCC[C@@H]1NC(=O)[C@H](Cc2c[nH]c3ccccc23)NC(=O)[C@H]([C@@H](C)O)NC(=O)[C@H](CC(N)=O)NC(=O)[C@@H](NC(C)=O)CSSC[C@@](C)(C(=O)N[C@@H](Cc2ccc(OCCN)cc2)C(=O)N[C@@H](Cc2ccc3ccccc3c2)C(=O)N[C@@](C)(CCCCN)C(=O)N[C@@H](CCCCNC(C)=O)C(=O)N[C@@H](CC(N)=O)C(=O)NC2(C(N)=O)CCOCC2)NC1=O

Target: T1, human IL-23R (interleukin-23 receptor)
Assay: cell-based or functional assay

PBMC pSTAT3 IC50 (nM) | pStat3 HTRF (nM), IC50, DB cells IL23R pSTAT3 cell assay [nM] | Binder
11 |  | B1
5.1 |  | B2
20 |  | B3
 | 2.09 | B4
30 |  | B5
5.3 |  | B6
54 |  | B7
51 |  | Ac-[dR][Pen]QTWQ[Pen][AEF][2Nal][Thp]EN[(N-Pyr)Asn]-NH2 (disulfide 2-7) [Compound No. 128]
700 |  | Ac-[dR][Pen]QTWQ[Pen][AEF][2Nal][Thp]EN[(N-benzyl)Asn]-NH2 (disulfide 2-7) [Compound No. 110]
4.9 |  | B8
12 |  | B9
7.1 |  | B10
9.2 |  | B11
39 |  | B12
41 |  | B13
48 |  | Ac-[dR][Pen]QTWQ[Pen][AEF][2Nal][Thp]EN[(N-Pip)Asn]-NH2 (disulfide 2-7) [Compound No. 127]
11 |  | Ac-[dR][Abu]QTWQC[AEF][2Nal][Thp]EN[αMeF]-NH2 (thioether 2-7) [Compound No. 123]
